# According to US20170067880A1 (Genentech, published 2017):
# Columns and labels:
# [1] = target: T1, MBP-SD with C-terminal His tag, expressed in S. aureus (UniProt P0AEX9 27-396 = MBP); assay: Western blot of MBP fusion constructs expressed in S. aureus
# T1 construct: mature; One of the small SD peptide constructs, expressed in S. aureus RN4220 delta sortase; not shown: C-terminal His tag
# [2] = target: T2, MBP-SDS with C-terminal His tag, expressed in S. aureus (UniProt P0AEX9 27-396 = MBP); assay: as above
# T2 construct: mature; One of the small SD peptide constructs, expressed in S. aureus RN4220 delta sortase; not shown: C-terminal His tag
# [3] = target: T3, MBP-DSD with C-terminal His tag, expressed in S. aureus (UniProt P0AEX9 27-396 = MBP); assay: as above
# T3 construct: mature; One of the small SD peptide constructs, expressed in S. aureus RN4220 delta sortase; not shown: C-terminal His tag
# [4] = target: T4, E. coli expressed N-terminal Unizyme tagged SdrC, incubated with S. aureus lysate (Staphylococcus aureus (USA300), UniProt Q2FJ79 51-913, modified by incubation with cleared lysate of delta-Pan Sdr mutant Newman S. aureus; modification not identified); assay: Western blot of NiNta-captured E. coli protein after incubation with S. aureus lysate
# T4 construct: mature; Made in E. coli 58F3, purified, captured on NiNta resin, then incubated with S. aureus lysate for 1 hr at 37 C; also called E. coli expressed Sdr protein SdrC; not shown: N-terminal Unizyme tag (ST239 vector, Genentech)
# [5] = target: T5, E. coli expressed N-terminal Unizyme tagged SdrD, incubated with S. aureus lysate (Staphylococcus aureus (USA300), UniProt Q2FJ78 36-1347, modified by incubation with cleared lysate of delta-Pan Sdr mutant Newman S. aureus; modification not identified); assay: as above
# T5 construct: mature; Made in E. coli 58F3, purified, captured on NiNta resin, then incubated with S. aureus lysate for 1 hr at 37 C; also called E. coli expressed Sdr protein SdrD; not shown: N-terminal Unizyme tag (ST239 vector, Genentech)
# [6] = target: T6, E. coli expressed N-terminal Unizyme tagged SdrE, incubated with S. aureus lysate (Staphylococcus aureus (USA300), UniProt Q2FJ77 53-1120, modified by incubation with cleared lysate of delta-Pan Sdr mutant Newman S. aureus; modification not identified); assay: as above
# T6 construct: mature; Made in E. coli 58F3, purified, captured on NiNta resin, then incubated with S. aureus lysate for 1 hr at 37 C; also called E. coli expressed Sdr protein SdrE; not shown: N-terminal Unizyme tag (ST239 vector, Genentech)
# T6 sequence (Q2FJ77 53-1120): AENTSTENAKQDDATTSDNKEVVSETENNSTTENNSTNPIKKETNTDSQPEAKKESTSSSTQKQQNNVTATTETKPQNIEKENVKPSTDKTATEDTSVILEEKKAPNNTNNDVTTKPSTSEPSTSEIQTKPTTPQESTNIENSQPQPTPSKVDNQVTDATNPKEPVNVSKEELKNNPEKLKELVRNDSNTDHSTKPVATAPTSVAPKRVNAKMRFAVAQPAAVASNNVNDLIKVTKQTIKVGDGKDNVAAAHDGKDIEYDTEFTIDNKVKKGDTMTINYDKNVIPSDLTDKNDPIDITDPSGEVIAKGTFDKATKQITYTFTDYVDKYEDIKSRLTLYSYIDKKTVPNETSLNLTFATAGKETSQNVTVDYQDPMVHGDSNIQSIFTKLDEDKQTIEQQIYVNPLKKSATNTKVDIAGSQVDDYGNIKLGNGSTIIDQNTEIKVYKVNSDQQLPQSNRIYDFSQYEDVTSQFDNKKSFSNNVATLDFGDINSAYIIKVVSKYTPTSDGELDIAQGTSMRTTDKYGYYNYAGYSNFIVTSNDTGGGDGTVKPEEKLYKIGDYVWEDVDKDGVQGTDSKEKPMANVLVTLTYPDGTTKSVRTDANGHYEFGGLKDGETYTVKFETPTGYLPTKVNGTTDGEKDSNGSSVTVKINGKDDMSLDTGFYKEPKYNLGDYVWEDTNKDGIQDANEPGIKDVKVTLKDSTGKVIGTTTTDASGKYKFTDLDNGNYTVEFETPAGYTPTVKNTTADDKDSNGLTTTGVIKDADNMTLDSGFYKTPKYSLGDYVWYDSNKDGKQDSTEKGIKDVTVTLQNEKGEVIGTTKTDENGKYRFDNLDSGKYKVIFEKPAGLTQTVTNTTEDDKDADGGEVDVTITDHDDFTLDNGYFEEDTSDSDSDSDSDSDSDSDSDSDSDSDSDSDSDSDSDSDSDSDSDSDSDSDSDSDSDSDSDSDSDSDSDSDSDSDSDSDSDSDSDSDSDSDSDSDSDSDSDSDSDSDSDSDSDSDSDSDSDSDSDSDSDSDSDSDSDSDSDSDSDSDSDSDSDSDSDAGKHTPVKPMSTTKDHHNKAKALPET
# T4 sequence (Q2FJ79 51-913): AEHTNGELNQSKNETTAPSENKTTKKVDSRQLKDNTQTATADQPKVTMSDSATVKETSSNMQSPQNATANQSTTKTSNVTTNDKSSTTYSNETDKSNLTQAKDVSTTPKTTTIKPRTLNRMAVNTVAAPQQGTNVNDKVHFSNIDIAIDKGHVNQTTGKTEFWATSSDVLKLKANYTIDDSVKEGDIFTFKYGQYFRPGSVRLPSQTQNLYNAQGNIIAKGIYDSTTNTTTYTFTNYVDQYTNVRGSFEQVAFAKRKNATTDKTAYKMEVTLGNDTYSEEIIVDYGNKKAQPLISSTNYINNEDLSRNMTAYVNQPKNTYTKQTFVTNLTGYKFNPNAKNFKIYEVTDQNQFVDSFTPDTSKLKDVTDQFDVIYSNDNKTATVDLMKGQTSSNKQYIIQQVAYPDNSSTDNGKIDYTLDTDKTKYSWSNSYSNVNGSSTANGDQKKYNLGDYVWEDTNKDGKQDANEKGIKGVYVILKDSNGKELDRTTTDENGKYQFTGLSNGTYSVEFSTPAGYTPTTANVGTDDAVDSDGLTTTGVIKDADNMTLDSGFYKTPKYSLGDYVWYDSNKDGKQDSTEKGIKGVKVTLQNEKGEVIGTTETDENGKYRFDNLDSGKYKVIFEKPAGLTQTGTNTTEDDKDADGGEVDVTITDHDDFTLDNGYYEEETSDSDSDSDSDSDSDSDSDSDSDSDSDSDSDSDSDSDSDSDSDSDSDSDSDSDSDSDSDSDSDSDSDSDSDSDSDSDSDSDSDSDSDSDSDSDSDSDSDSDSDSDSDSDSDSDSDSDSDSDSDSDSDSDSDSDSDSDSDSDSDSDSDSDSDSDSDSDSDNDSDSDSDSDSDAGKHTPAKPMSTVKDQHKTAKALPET
# T5 sequence (Q2FJ78 36-1347): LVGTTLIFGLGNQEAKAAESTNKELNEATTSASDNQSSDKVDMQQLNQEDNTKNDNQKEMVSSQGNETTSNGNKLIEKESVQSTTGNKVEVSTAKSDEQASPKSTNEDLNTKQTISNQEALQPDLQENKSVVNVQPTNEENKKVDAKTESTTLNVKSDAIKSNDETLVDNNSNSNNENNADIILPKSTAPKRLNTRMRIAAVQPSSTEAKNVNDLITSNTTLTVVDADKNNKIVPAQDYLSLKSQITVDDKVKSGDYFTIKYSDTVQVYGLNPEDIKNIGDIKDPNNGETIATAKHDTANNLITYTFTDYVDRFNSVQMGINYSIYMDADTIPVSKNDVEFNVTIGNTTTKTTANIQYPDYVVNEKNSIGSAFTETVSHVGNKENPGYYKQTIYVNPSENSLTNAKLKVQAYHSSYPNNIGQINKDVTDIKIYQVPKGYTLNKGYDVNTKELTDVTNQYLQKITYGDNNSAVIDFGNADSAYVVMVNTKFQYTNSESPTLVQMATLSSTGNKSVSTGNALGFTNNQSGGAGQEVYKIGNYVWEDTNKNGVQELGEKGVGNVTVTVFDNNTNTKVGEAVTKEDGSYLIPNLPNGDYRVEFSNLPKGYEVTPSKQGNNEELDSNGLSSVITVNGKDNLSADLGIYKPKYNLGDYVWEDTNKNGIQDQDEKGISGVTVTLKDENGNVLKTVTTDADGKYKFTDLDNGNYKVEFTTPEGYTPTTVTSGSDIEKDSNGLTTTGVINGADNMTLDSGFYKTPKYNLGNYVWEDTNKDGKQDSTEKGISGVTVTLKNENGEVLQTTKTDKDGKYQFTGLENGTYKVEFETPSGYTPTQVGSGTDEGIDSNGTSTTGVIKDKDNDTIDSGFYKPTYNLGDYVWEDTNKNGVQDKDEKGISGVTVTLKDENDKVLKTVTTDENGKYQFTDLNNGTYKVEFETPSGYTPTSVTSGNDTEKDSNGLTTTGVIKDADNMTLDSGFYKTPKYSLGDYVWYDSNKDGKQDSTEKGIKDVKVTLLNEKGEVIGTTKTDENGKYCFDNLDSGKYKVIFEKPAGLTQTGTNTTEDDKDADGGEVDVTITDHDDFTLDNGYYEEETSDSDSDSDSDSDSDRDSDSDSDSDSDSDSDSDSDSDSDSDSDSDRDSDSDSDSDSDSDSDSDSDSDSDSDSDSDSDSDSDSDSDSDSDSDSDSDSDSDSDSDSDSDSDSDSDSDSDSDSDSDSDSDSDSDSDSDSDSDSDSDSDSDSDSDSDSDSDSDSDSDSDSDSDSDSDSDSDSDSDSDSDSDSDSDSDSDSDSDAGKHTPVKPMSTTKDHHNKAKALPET
binder,measurement,setting,value
"antibody F1 (antibody, V domains shown, also called rF1; recombinant F1) VH: EVQLLESGGGLVQPGGSLRLSCAASGFTLSRFAMSWVRQAPGRGLEWVASINNGNNPYYARSVQYRFTVSRDVSQNTVSLQMNNLRAEDSATYFCAKDHPSSGWPTFDSWGPGTLVTVSS VL: DIQLTQSPSALPASVGDRVSITCRASENVGDWLAWYRQKPGKAPNLLIYKTSILESGVPSRFSGSGSGTEFTLTISSLQPDDFATYYCQHYIRFPYTFGQGTKLEIKR",binding result,[1],no binding
same,binding result,[2],no binding
same,binding result,[3],no binding
same,binding result,[4],binds
same,binding result,[5],binds
same,binding result,[6],binds
